{"source": "patent US20130157959", "proteins": {"B1": {"name": "GST-Hades Ring protein (RP) (protein)", "chain": "RLKQMQEEFQEHEAQLLSRAKPEDRESLKSACVVCLSSFKSCVFLECGHVCSCTECYRALPEPKKCPICRQAITRVIPLYN"}}, "key": {"[1]": {"biological_target": "in vitro translated 35S-labelled p53 (wild-type), P04637"}, "[2]": {"biological_target": "mutant p53 6CKR, P04637"}, "[3]": {"biological_target": "in vitro translated 35S-labelled mutant p53 K24R, P04637"}}}
{"protein": "B1", "values": [{"measurement": "in vitro ubiquitination of 35S-labeled p53 with E1 and several E2 enzymes, autoradiography", "setting": "[1]", "result": "The 35S-labeled p53 was polyubiquitinated in an Ubc5a or Ubc5c-dependent manner"}, {"measurement": "in vitro ubiquitination of 35S-labelled p53, SDS-PAGE and autoradiography", "setting": "[1]", "result": "WT p53 was ubiquitinated by Hades"}, {"measurement": "in vitro ubiquitination of p53 with E1, E2 (UbcH5c) and His-ubiquitin, anti-p53 immunoblot", "setting": "[1]", "result": "The p53 ubiquitination was only induce by Hades"}, {"measurement": "in vitro ubiquitination of p53 lysine mutants, immunoblot", "setting": "[2]", "result": "Hades was still able to ubiquitinate a form of p53 in which all six lysines was mutated (6CKR)"}, {"measurement": "in vitro ubiquitination of 35S-labelled p53 K24R, SDS-PAGE and autoradiography", "setting": "[3]", "result": "the in vitro translated p53 K24R was not ubiquitinated by Hades"}]}
